Changes are numbered by the printed parent chain.

Assay [1] concerns the target human MET (soluble analyte in the Biacore assay) (human) (UniProt P08581). The experiment in a line: SPR (Biacore 2000): agent captured via goat anti-human antibody, human MET injected. On the technique in general: SPR reads the build-up and loss of mass on a sensor chip optically.
Assay [2] concerns the target full-length human MET (FL-MET) on cells (human) (UniProt P08581). As to the kind of experiment: FACS blocking assay on MET-transfected HEK-293T cells; blocked ligand: biotinylated HGF, PE-streptavidin.
Assay [3] shares this target. The experiment in a line: FACS: inhibition of biotin-HGF binding to MET-transfected HEK-293T cells, agent at 0.16 µg/ml.
Assay [4] has the same target. The experiment in a line: FACS: inhibition of biotin-HGF binding to MET-transfected HEK-293T cells, agent at 10 µg/ml. On the technique in general: A flow cytometer gives signals particle by particle.
In assay [5] the target is T1, human MET (soluble analyte in the Biacore assay) (human, UniProt P08581 25-932). As to the kind of experiment: SPR (Biacore 2000): agent captured via goat anti-human antibody, human MET injected. As for the experimental part:
(§1) The KD of monovalent version of anti-MET antibody 73R009, monovalent anti-MET antibody 5D5, and anti-MET/FZD8-Fc bispecific agent 315B06 were determined using a Biacore 2000 system from Biacore Life Sciences (GE Healthcare). A goat anti-human antibody (Invitrogen H10500) was coupled to a carboxymethyl-dextran (CM5) SPR chip using standard amine-based chemistry (NHS/EDC) and blocked with ethanolamine. Antibodies were diluted to a concentration of 10 μg/ml in HBS-P-BSA (0.01M HEPES pH7.4, 0.15M NaCl, 0.005% v/v Polysorbate 20, 10 μg/ml BSA) and captured onto the chip via the anti-human antibody. Human MET was serially diluted 2-fold from 300 nM to 37.5 nM in HBS-P-BSA and injected sequentially over the captured anti-MET antibodies. MET association and dissociation was measured at each concentration. After each antigen injection 5 μl of 100 mM H₃P0₄ was injected to remove the antigen-antibody complex and a subsequent injection performed. Kinetic data were collected over time and were fit using the simultaneous global fit equation to yield affinity constants (KD values) for each agent.
In addition, the bispecific agent 315B06 appeared to have stronger affinity for human MET than anti-MET antibody 5D5.

For assay [6], the target named is T2, human Sema mutant Mut96,99 (F96L and Q99R; Sema-hCD4TM-GFP) on cells (human, UniProt P08581 25-515).
T2 construct: not shown: human CD4 transmembrane domain and GFP (display and reporter carrier at the C end)
T2 sequence (P08581 25-515 F96L/Q99R limits assumed): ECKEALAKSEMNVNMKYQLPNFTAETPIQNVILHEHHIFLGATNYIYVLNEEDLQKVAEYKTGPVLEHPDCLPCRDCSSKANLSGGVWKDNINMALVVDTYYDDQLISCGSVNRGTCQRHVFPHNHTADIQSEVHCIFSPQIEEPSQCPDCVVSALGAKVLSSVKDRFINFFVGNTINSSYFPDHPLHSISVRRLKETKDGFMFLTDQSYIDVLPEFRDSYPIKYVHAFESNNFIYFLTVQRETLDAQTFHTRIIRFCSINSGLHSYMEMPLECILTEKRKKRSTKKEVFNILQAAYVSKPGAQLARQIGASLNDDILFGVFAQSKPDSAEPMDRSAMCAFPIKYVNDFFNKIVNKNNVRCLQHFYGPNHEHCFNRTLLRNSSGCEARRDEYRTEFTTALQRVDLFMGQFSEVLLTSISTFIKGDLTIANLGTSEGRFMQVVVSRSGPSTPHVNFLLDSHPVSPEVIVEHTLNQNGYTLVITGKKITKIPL
As to the kind of experiment: FACS on transfected HEK-293T cells. The procedure:
(§2) To identify the MET epitope recognized by the anti-MET/FZD8-Fc bispecific agent, epitope mapping was performed. […] Therefore, site-directed mutagenesis was performed to create a series of human Sema mutants. Kunkel mutagenesis was used to replace specific amino acids in the human Sema sequence with the corresponding amino acids found in the mouse Sema sequence at predicted antibody-binding sites. The human Sema mutants were: Mut96,99 (F96L and Q99R), Mut96 (F96L), Mut99 (Q99R), Mut328 (Q328N), Mut331 (R331K), and Mut337,338 (L337P and N338S).
(§3) Mammalian expression plasmid vectors encoding a wild-type human Sema, a wild-type mouse Sema, a mouse/human Sema mutant wherein the 5′ end is mouse (aa 1-331) and the 3′ end is human (aa 332-515), and the human Sema mutants outlined above were generated by standard recombinant technology. These constructs comprise the transmembrane domain of a human CD4 protein and GFP (for example, Sema-hCD4TM-GFP). These expression constructs allow for expression of the Sema domain on the cell surface, as well as expression of GFP to monitor expression. […] The cells were washed and bound bispecific agents were detected with a secondary anti-human Fc antibody conjugated to allophycocyanin (APC). […] Labeled cells were analyzed by flow cytometry to measure the binding of 315B07 and 5D5/FZD8-Fc to the series of Sema mutants.

The target in assay [7] is T3, human Sema mutant Mut99 (Q99R; Sema-hCD4TM-GFP) on cells (human, UniProt P08581 25-515).
T3 construct: not shown: human CD4 transmembrane domain and GFP (display and reporter carrier at the C end)
T3 sequence (P08581 25-515 Q99R limits assumed): as the sequence (P08581 25-515 F96L/Q99R limits assumed) above, with L72F counted along it
As to the kind of experiment: FACS on transfected HEK-293T cells. As for the experimental part:
as §2, §3

Assay [8] has as its target T1, human MET (soluble analyte in the …). The experiment in a line: SPR (Biacore 2000) as described in Example 1. As for the experimental part: as §1
Antibody 73R010 was used in a variation of the anti-MET/FZD8-Fc bispecific agent, and this variant bispecific agent is referred to as 315B07.

T1 sequence (P08581 25-932 limits assumed): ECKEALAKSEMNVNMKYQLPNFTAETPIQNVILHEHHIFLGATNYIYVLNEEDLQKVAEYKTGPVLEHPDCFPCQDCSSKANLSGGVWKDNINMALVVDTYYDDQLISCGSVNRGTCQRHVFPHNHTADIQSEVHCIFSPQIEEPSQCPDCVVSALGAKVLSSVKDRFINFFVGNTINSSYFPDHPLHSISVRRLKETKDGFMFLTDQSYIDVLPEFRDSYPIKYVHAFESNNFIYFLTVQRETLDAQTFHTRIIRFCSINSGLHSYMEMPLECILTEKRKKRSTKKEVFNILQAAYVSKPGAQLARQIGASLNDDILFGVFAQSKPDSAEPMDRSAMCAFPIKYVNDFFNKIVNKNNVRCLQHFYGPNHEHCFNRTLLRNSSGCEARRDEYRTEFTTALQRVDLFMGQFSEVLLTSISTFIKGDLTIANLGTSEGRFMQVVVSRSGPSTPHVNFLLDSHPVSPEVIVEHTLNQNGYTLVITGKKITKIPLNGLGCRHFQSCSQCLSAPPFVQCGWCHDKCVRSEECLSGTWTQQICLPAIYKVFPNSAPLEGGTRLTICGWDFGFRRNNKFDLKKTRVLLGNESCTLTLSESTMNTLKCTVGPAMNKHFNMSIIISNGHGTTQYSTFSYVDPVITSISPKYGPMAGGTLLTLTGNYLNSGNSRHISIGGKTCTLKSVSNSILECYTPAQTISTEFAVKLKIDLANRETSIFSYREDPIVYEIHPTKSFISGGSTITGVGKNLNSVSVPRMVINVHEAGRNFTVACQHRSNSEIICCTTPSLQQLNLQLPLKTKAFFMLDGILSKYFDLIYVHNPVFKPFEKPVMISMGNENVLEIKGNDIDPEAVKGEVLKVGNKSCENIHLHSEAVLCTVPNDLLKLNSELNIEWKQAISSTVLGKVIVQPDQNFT
Chain of full-length human MET (FL-MET) on cells (human) (P08581 25-1390 limits assumed): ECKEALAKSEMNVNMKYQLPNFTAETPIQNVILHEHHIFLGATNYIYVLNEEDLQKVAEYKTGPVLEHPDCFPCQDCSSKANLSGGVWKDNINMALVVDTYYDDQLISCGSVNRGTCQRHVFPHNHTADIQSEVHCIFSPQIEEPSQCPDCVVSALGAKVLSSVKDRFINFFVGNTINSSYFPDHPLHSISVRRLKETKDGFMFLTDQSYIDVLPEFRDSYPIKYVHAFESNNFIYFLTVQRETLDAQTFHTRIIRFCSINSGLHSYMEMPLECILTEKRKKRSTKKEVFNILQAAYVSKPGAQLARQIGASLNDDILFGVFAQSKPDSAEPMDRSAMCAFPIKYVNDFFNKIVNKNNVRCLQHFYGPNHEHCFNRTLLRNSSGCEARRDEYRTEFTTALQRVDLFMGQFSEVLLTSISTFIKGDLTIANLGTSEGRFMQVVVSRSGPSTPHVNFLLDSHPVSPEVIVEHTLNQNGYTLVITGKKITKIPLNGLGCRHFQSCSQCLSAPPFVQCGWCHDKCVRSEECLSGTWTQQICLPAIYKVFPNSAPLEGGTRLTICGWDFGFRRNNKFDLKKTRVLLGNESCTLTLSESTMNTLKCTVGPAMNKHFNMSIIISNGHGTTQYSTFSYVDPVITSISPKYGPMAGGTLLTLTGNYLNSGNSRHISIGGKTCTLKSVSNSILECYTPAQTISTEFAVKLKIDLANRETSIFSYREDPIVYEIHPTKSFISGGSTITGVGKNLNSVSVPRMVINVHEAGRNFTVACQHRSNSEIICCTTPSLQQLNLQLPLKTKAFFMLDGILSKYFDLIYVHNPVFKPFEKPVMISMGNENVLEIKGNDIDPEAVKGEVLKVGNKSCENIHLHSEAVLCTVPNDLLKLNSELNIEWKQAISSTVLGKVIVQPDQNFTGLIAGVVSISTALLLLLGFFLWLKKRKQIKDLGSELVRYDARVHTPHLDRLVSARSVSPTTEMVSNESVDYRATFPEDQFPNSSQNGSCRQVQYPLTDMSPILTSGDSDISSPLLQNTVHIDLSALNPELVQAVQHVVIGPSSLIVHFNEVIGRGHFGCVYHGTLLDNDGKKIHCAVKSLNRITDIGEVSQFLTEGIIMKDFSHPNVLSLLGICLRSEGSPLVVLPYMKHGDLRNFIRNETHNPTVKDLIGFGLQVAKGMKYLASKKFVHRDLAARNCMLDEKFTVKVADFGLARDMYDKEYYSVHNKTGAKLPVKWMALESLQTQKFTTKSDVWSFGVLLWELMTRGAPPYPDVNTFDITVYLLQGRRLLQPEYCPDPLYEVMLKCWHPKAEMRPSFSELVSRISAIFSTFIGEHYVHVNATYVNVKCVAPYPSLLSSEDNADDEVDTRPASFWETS
Chain of human MET (soluble analyte in the Biacore assay) (human) (P08581 25-932 limits assumed): as the sequence (P08581 25-932 limits assumed) above

Turning to monovalent anti-MET antibody 5D5, the Kd (as a rule, a measure of binding affinity in units of concentration) in assay [1] stood at 7.2 nM. Also, in assay [2], the % Binding of hHGF at 0.16 ug/ml antibody came to 14.3%, the % Binding of hHGF at 0.3 ug/ml antibody came out at 10.6%, the % Binding of hHGF at 0.625 ug/ml antibody was 12% and the % Binding of hHGF at 1.25 ug/ml antibody is 8.54%. In assay [2], the % Binding of hHGF at 2.5 ug/ml antibody stood at 9.61%, the % Binding of hHGF at 5 ug/ml antibody was 6.67%, the % Binding of hHGF at 10 ug/ml antibody stood at 6.31% and the % Inhibition of hHGF binding at 0.3 ug/ml antibody is 47%. Also, in assay [2], the % Inhibition of hHGF binding at 0.625 ug/ml antibody is 40%, the % Inhibition of hHGF binding at 1.25 ug/ml antibody came to 57%, the % Inhibition of hHGF binding at 2.5 ug/ml antibody turned out to be 52% and the % Inhibition of hHGF binding at 5 ug/ml antibody amounted to 67%. Besides, in assay [3], the percent reduction of HGF binding to MET was 28%. In assay [4], the percent reduction of HGF binding to MET is 70%.

B1: anti-MET antibody 73R009 (bivalent “parental” antibody) (antibody, human IgG2, kappa, V domains shown)
VH: QVQLQESGPGLVKPSETLSLTCTVTGTTITASYAWSWIRQPPGKGLEWMGYISYSGGTDYNPSLKSRITISRDTFKNQFSLKLSSVTAADTATYYCARKGAYWGQGTLVTVSS
VL: DIVLTQSPATLSASPGEKVTLTCSASSSVSSSYLYWYQQKPGQAPKLLIYSTSNLASGVPARFSGSGSGTSYSLTISSLEPEDFATYYCHQWSSYPYTFGGGTKLEIKR
For B1, binding in assay [5] was put at a Kd of 1.1 nM.

B2: monovalent version of anti-MET antibody 73R009 (antibody, V domains shown)
VH: B1 VH
VL: DIVLTQSPATLSASPGEKVTLTCSASSSVSSSYLYWYQQKPGQAPKLLIYSTSNLASGVPARFSGSGSGTSYSLTISSLEPEDFATYYCHQWSSYPYTFGGGTKLEIK
notes: Only the 73R009 variable regions can be tied to this molecule; also called monovalent anti-MET antibody 73R009; monovalent version of 73R009
With B2, in assay [5], the Kd turned out to be 1.4 nM.

B3: anti-MET/FZD8-Fc bispecific agent 315B06 (bispecific antibody, human IgG2, kappa)
heavy: QVQLQESGPGLVKPSETLSLTCTVTGTTITASYAWSWIRQPPGKGLEWMGYISYSGGTDYNPSLKSRITISRDTFKNQFSLKLSSVTAADTATYYCARKGAYWGQGTLVTVSSASTKGPSVFPLAPCSRSTSESTAALGCLVKDYFPEPVTVSWNSGALTSGVHTFPAVLQSSGLYSLSSVVTVPSSNFGTQTYTCNVDHKPSNTKVDKTVERKCCVECPPCPAPPVAGPSVFLFPPKPKDTLMISRTPEVTCVVVDVSHEDPEVQFNWYVDGVEVHNAKTKPREEQFNSTFRVVSVLTVVHQDWLNGKEYKCKVSNKGLPAPIEKTISKTKGQPREPQVYTLPPSREKMTKNQVSLTCLVKGFYPSDIAVEWESNGQPENNYKTTPPMLKSDGSFFLYSKLTVDKSRWQQGNVFSCSVMHEALHNHYTQKSLSLSPGK
light: DIVLTQSPATLSASPGEKVTLTCSASSSVSSSYLYWYQQKPGQAPKLLIYSTSNLASGVPARFSGSGSGTSYSLTISSLEPEDFATYYCHQWSSYPYTFGGGTKLEIKRTVAAPSVFIFPPSDEQLKSGTASVVCLLNNFYPREAKVQWKVDNALQSGNSQESVTEQDSKDSTYSLSSTLTLSKADYEKHKVYACEVTHQGLSSPVTKSFNRGEC
chain: ASAKELACQEITVPLCKGIGYNYTYMPNQFNHDTQDEAGLEVHQFWPLVEIQCSPDLKFFLCSMYTPICLEDYKKPLPPCRSVCERAKAGCAPLMRQYGFAWPDRMRCDRLPEQGNPDTLCMDYNRTDLTTTKVDKTVERKSCVECPPCPAPPVAGPSVFLFPPKPKDTLMISRTPEVTCVVVDVSHEDPEVQFNWYVDGVEVHNAKTKPREEQFNSTFRVVSVLTVVHQDWLNGKEYKCKVSNKGLPAPIEKTISKTKGQPREPQVYTLPPSREEMTKNQVSLTCLVEGFYPSDIAVEWESNGQPENNYKTTPPMLDSDGSFFLYSELTVDKSRWQQGNVFSCSVMHEALHNHYTQKSLSLSPGK
notes: Heterodimer with one anti-MET arm (heavy and light chain) and one FZD8-Fc soluble receptor arm; also called bispecific anti-MET/FZD8-Fc agent 315B06; 351B06 [sic]
B3: binding in assay [5] was put at a Kd of 1.8 nM.

B4: anti-MET/FZD8-Fc bispecific agent 315B07 (bispecific antibody, human IgG2, kappa)
heavy: B3 heavy with T25S, I68V, T93V
light: EIVLTQSPATLSLSPGERATLSCSASSSVSSSYLYWYQQKPGQAPRLLIYSTSNLASGIPARFSGSGSGTDFTLTISRLEPEDFAVYYCHQWSSYPYTFGQGTKLEIKRTVAAPSVFIFPPSDEQLKSGTASVVCLLNNFYPREAKVQWKVDNALQSGNSQESVTEQDSKDSTYSLSSTLTLSKADYEKHKVYACEVTHQGLSSPVTKSFNRGEC
chain: B3 chain
notes: Heterodimer with one humanized anti-MET arm (73R010) and one FZD8-Fc soluble receptor arm; also called OMP-315B07; 3151307 [sic]
Regarding B4, the binding result in assay [6] and in assay [7] was “no binding” in each case. In addition, the Kd in assay [8] was 0.126 nM.

Source of the values: patent US20160319034A1 (ONCOMED PHARMACEUTICALS, published 2016).
